System: MS2 coat protein
Assay: apparent KD of MS2 coat protein; designed switch direction (-1 OFF switch, 1 ON switch): -1; higher = weaker reporter binding
In short: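 Designed RNA switches were transcribed on Illumina chips by stalled E. coli RNA polymerase and titrated with SNAP-549-labelled MS2 coat protein from 0.7 or 1.5 nM, doubling to 3 µM. Step length ran from 0.8–1.5 h at the lowest concentration to 10–20 min at the highest. The apparent KD is the median over clusters for each design, from curve-fitted normalised cluster fluorescence.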

[1] = Eterna round: R95, input ligand: FMN 200 uM
[2] = Eterna round: R95, input ligand: microRNA oligo, concentration not stated
[3] = Eterna round: R95, input ligand: none
[4] = input ligand: microRNA oligo, concentration not stated

Sequence	apparent KD of MS2 coat protein (input ligand: FMN 200 uM)	apparent KD of MS2 coat protein (input ligand: none)	apparent KD of MS2 coat protein [4]	also measured
UAUAACAAGCCAGAUCCUAACAUGAGGAUCACCCAUGUGCUCGUCUGAUUUUGUACUAUCAUGAGAGUGAUAGUACU [Level Boss var2-03] (puzzle: Sensor v3, turn-off variant 1)				apparent KD of MS2 coat protein [1]: 181 nM; apparent KD of MS2 coat protein [2]: 488 nM; apparent KD of MS2 coat protein [3]: 192 nM
UAUAACCAAGGAUAUACAUGAGGAUCACCCAUGUAAUAUAAAAUAAAAUAAAUAAAAUGUAGAAGGUGGGAUAU (Eterna round: R97, puzzle: Exclusion 3)	40.8 nM	37.6 nM		
UAUAAUACAUAGGAUAUCGAAUAAAUCAUUUAACGAGAAGGAUGAACAUGAGGAUCACCCAUGUGGUAUCAUGG [Mat - Exclusion 6 - JL Mod - D12] (puzzle: Exclusion 6)				apparent KD of MS2 coat protein [2]: 180 nM
UAUACAAAAGAUACCUCGUGACAUGAGGAUCACCCAUGUUUUGAGGAUAUCAGACUUCAUGGUCAUGAGAAGGCAGAGCAUGAU [Tireala] (Eterna round: R96, puzzle: Exclusion NG 3)	20.4 nM	13.6 nM	10.1 nM	
UAUAUAUAGUAAGGAUAUGUAAUUAUUUUAUGAACAGAAGGUACUGACAUGAGGAUCACCCAUGUUUUAGUGUGGGCAUGUAGA [JMF's solution 48] (Eterna round: R96, puzzle: Exclusion NG 1)			61.3 nM	
UAUAUAUAGUAAGGAUAUGUAAUUAUUUUGUAAACAGAAGGUACUGACAUGAGGAUCACCCAUGUUUUAGUGUGGGCAUGUAGA [JMF's solution 44] (Eterna round: R96, puzzle: Exclusion NG 1)			84.5 nM	
UAUAUAUAGUAAGGAUAUGUAUAUAUUCUAUAAACAGAAGGUACUGACAUGAGGAUCACCCAUGUUUUAGUGUGGGCAUGUAGA [JMF's solution 62] (Eterna round: R96, puzzle: Exclusion NG 1)			27.4 nM	
UAUAUAUAGUAAGGAUAUGUAUUAAUUUUAUUAACAGAAGGUACUGACAUGAGGAUCACCCAUGUUUUAGUGUGGGCAUGUAGA [JMF's solution 90] (Eterna round: R96, puzzle: Exclusion NG 1)			69.4 nM	
UAUAUAUAGUAAGGAUAUGUAUUUAUUCUAUAAACAGAAGGUACUGACAUGAGGAUCACCCAUGUUUUAGUGUGGGCAUGUAGA [JMF's solution 18] (Eterna round: R96, puzzle: Exclusion NG 1)			33 nM	
UAUAUAUAGUAAGGAUAUGUAUUUAUUUUAUAGACAGAAGGUACUGACAUGAGGAUCACCCAUGUUUUAGUGUGGGCAUGUAGA [JMF's solution 27] (Eterna round: R96, puzzle: Exclusion NG 1)	122 nM	94.4 nM	78.5 nM	
UAUAUAUAGUAAGGAUAUGUAUUUGUUUUAUAAACAGAAGGUACUGACAUGAGGAUCACCCAUGUUUUAGUGUGGGCAUGUAGA [JMF's solution 11] (Eterna round: R96, puzzle: Exclusion NG 1)			32.8 nM	
UAUAUGUGAGGAUAUCAGGUGUGCUAGCGUACUGGUACAUCUGAGAAGGCACAUGAGGAUCACCCAUGUAUCUU [JL-ex4-3.25 Brourd mod] (puzzle: Exclusion 4)				apparent KD of MS2 coat protein [2]: 25.5 nM
UAUGAAGUAGGAUAUACAUGAGGAUCACCCAUGUCCUUACUGAGACCGGGCACGGCUCGUAGAAGGGCUUUCGA [Eternabot (L2) Solution 50] (Eterna round: R97, puzzle: Exclusion 3)	36.7 nM	40.7 nM		
UAUGGUUAAGUCAGGAUAUACAAACAGAAAUCUGAGUAGAAGGGACAUGAGGAUCACCCAUGUAUGGUAGUGUU [Ex4 #56] (Eterna round: R97, puzzle: Brourd's mod of Exclusion 4)	48.6 nM	44.6 nM		
UAUGUCUUUGUGAGGAUAUACUUUGUUUGGUCGUAGUAGAAGGCACAUGAGGAUCACCCAUGUAGAUUUUUGGU [JR_BME4_Sub011] (puzzle: Brourd's mod of Exclusion 4)				apparent KD of MS2 coat protein [2]: 20.1 nM
UAUUAACAAGCGAGAUCCCACAUGAGGAUCACCCAUGUGCUCGUCUUAUAAGGUACUGUGACGAAAGUCACGGUACC [Sensor 3, v1 - 91 v2] (Eterna round: R97, puzzle: Sensor, turn-off variant 1)	17 nM	15.7 nM		
UAUUAACAUGUAGGAUAUCUGCACGUUUAGUGCAGAGAAGGACAUGAGGAUCACCCAUGUAGAUCAUAAUAAUUUAAUUUAAUU [ENG1/6-D2] (Eterna round: R96, puzzle: Exclusion NG 1)	541 nM	117 nM	141 nM	
UAUUAAUUAAUUAAUUAAUACAUGAGGAUCACCCAUGUAAUUUAAGAUCCUUAUACAAGCUUUGAUCUCGUAAUUAA [Stov1/4-A2] (Eterna round: R97, puzzle: Sensor, turn-off variant 1)	861 nM	696 nM		

Sequence	apparent KD of MS2 coat protein (input ligand: FMN 200 uM)	apparent KD of MS2 coat protein (input ligand: none)	apparent KD of MS2 coat protein [4]	also measured
UAUUAGCAAGUGAGAUCCGACAUGAGGAUCACCCAUGUGCUCGUCUUAUAAGCUAAUAUAAGAAAACUUAUAUUAGC [Elimod 7 - Jieux - Sensor, turn-off variant 1] (Eterna round: R97, puzzle: Sensor, turn-off variant 1)	242 nM	284 nM		
UAUUAGGGAGGAUAUCGCAGUUGCAACAUGAGGAUCACCCAUGUGAACAGCCUCACCAAUCGAGAAGGCCUGAGUG [Eternabot (L2) Solution 59] (Eterna round: R97, puzzle: Exclusion 5)	71 nM	75.5 nM		
UAUUAGUAAGGAUAUGAGUCGUAGAACAAUAGUACUACGUCUCAGAAGGUACAUGAGGAUCACCCAUGUUCAUU [Mod of Fisker 2 - Jieux - Exclusion 4] (Eterna round: R97, puzzle: Exclusion 4)	27.4 nM	19 nM		
UAUUAGUGAGGAUAUGAGUCGUAGAACAAUAGUACUACGUCUCAGAAGGUACAUGAGGAUCACCCAUGUUCCUC [Fiskers Ex 4 Super Stable 44 mod 32] (puzzle: Exclusion 4)				apparent KD of MS2 coat protein [2]: 18.9 nM
UAUUAGUGAGGAUAUGAGUCGUAGAACAAUAGUACUACGUCUCAGAAGGUACAUGAGGAUCACCCAUGUUCCUU [Fiskers Ex 4 Super Stable 44 mod 34] (puzzle: Exclusion 4)				apparent KD of MS2 coat protein [2]: 12 nM
UAUUCGCAAGCGAGAUCCCACAUGAGGAUCACCCAUGUGCUCGUCUUAUAAGGUACUGUGACGAGAGUCACGGUACC [Mat - Sensor, turn-off var - Eli Mod - D82] (Eterna round: R97, puzzle: Sensor, turn-off variant 1)	16.8 nM	14.7 nM		
UAUUUAAUUAACAAGCUUUACAUGAGGAUCACCCAUGUGAUCAUGCUCGUCUUAGGUACAGGCUUCGGCCUGUACCA [Stov1/6-B2] (Eterna round: R97, puzzle: Sensor, turn-off variant 1)	51.8 nM	55.9 nM		
UAUUUCAUCUAUGGGAGUAACAUGAGGAUCACCCAUGUAUGUCUUGUUUUUUGUUCGUCUAAGACUUUCUGAUCAGU [JR_SV3TOV1_Sub031] (Eterna round: R96, puzzle: Sensor v3, turn-off variant 1)	39.4 nM	35.6 nM	43.1 nM	
UAUUUCAUCUAUGGGAGUAACAUGAGGAUCACCCAUGUAUGUCUUGUUUUUUGUUCGUCUAAGACUUUCUGAUCAGU [JR_SV3TOV1_Sub031] (puzzle: Sensor v3, turn-off variant 1)				apparent KD of MS2 coat protein [1]: 34.2 nM; apparent KD of MS2 coat protein [2]: 45.5 nM; apparent KD of MS2 coat protein [3]: 35.4 nM
UCAAAGUCAGGAUAUACAUGAGGAUCACCCAUGUAAAAUUUUAAUUUAAUUUGAAGGUGUAGAAGGGACAAACU [Ex3 #34] (Eterna round: R97, puzzle: Exclusion 3)	39.2 nM	38.8 nM		
UCAAGUUUUUAGAUUCUUAACAUGAGGAUCACCCAUGUGCUCGUCUUGUUGUACUAUCACUCGAAAGUGAUAGUACA (Eterna round: R97, puzzle: Sensor, turn-off variant 1)	43.5 nM	46.4 nM		
UCACGGGACUAAGGAUAUACAUGAUCCAUUUUUGUAGAAGGUAGAAUGUUAGAUCAUAAACUAAACAUGAGGAUCACCCAUGUU [JR_ExcNG1_Sub089] (Eterna round: R96, puzzle: Exclusion NG 1)			20.2 nM	
UCACGGGAUUGAGGAUAUAUAUUAAUUUUUACAAUAGAAGGCAAAUUGUUAGUUUUUUCACUAUACAUGAGGAUCACCCAUGUU [JR_ExcBG1_Sub079] (Eterna round: R96, puzzle: Exclusion NG 1)			18.9 nM	
UCACGGGAUUGAGGAUAUAUAUUAAUUUUUACAAUAGAAGGCAAAUUGUUAGUUUUUUCACUUUACAUGAGGAUCACCCAUGUU [JR_ExcBG1_Sub080] (Eterna round: R96, puzzle: Exclusion NG 1)			19.6 nM	
UCAUGUUAGCAGGAUAUGCUAUUUAUCUUUUAUGCAGAAGGGCUUACAUGAGGAUCACCCAUGUAUUAAGUCUU [JR_E6_Sub075] (puzzle: Exclusion 6)				apparent KD of MS2 coat protein [2]: 18 nM
UCAUGUUUAGAGGAUAUGAUUACUUUGGAGUAAUCAGAAGGCUAGACAUGAGGAUCACCCAUGUCAUAACAUGA [Exclusion 6 - B - 15:c] (puzzle: Exclusion 6)				apparent KD of MS2 coat protein [1]: 75.5 nM; apparent KD of MS2 coat protein [2]: 71.5 nM; apparent KD of MS2 coat protein [3]: 61.3 nM
UCCAACCCUGUGAGGAUAUCGUCCAUUUUUUGUUACGAGAAGGCACAUGAGGAUCACCCAUGUUUUUUAUUUUU [JR_BMOE4_Sub079] (puzzle: Brourd's mod of Exclusion 4)				apparent KD of MS2 coat protein [2]: 23.8 nM
